Results taken from the supplement of paper PMC9170038.

Tested on: MS2 coat protein
Assay: apparent KD of MS2 coat protein; designed switch direction (-1 OFF switch, 1 ON switch): -1; higher = weaker reporter binding
How it was run: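 Transcription of designed RNA switches on Illumina chips was done by stalled E. coli RNA polymerase. SNAP-549-labelled MS2 coat protein was then titrated in doubling steps from 0.7 or 1.5 nM to 3 µM, with steps of 0.8–1.5 h at the lowest and 10–20 min at the highest concentration. The per-design median over clusters of curve-fitted normalised fluorescence is reported as apparent KD.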

[1] = Eterna round: R95, input ligand: FMN 200 uM
[2] = Eterna round: R95, input ligand: microRNA oligo, concentration not stated
[3] = Eterna round: R95, input ligand: none
[4] = input ligand: microRNA oligo, concentration not stated

Sequence | apparent KD of MS2 coat protein [2] [µM] | apparent KD of MS2 coat protein (input ligand: FMN 200 uM) [µM] | apparent KD of MS2 coat protein (input ligand: none) [µM] | other results
CUUGUAAAUGUGAGGAUAUACUGUUAGUAAAGUUAGUAGAAGGUACAUGAGGAUCACCCAUGUUAAUUACUCUA [JR_BME4_Sub047] (puzzle: Brourd's mod of Exclusion 4) | 0.0132 | – | – | apparent KD of MS2 coat protein [1]: 0.0159 µM; apparent KD of MS2 coat protein [3]: 0.0145 µM
CUUGUAUAUCAGGAUAUGAUUUUAUAUAUUGGAUCAGAAGGGAUAACAUGAGGAUCACCCAUGUUGUGGAGUGA [JR_Ex6_Sub038] (Eterna round: R97, puzzle: Exclusion 6) | – | 0.0905 | 0.204 | –
CUUGUUUAUGUGAGGAUAUACUGUUAGUAAUGUUUGUAGAAGGUACAUGAGGAUCACCCAUGUUUAUUUCCUUU [JR_BME4_Sub045] (puzzle: Brourd's mod of Exclusion 4) | 0.0138 | – | – | –
CUUUACAUAGGAUAUAGUUGCUUUUACAUGAGGAUCACCCAUGUCUCUCCUCUCUCUCUUCUAGAAGGAUGUUUCU [JR_E5_Sub010] (puzzle: Exclusion 5) | 0.056 | – | – | –
CUUUCGUGAGGAUAUGUGGCUAAAAUCGUGAGAUCGAGGCUACAGAAGGCACAUGAGGAUCACCCAUGUUCCUC [salish99_ex4_r4_212] (Eterna round: R97, puzzle: Exclusion 4) | – | 0.379 | 0.0383 | –
CUUUUGGCAGGAUAUGCUUUUUUUGACAUGAGGAUCACCCAUGUGAUGCAUUUUGGGUUUGCAGAAGGGCCUGAGU [JR_E5_Sub036] (puzzle: Exclusion 5) | 0.0569 | – | – | –
CUUUUGUCAGGAUAUGAGUAGUAGAACAAUAGUACUACUACUCAGAAGGGACAUGAGGAUCACCCAUGUUCCUC [Fiskers Ex 4 Super stable 44 mod 19] (puzzle: Exclusion 4) | 0.0162 | – | – | –
CUUUUGUGAGGAUAUCAGGUGUGCUAGCGUACUGGUACAUCUGAGAAGGCACAUGAGGAUCACCCAUGUUUCUU [JL-ex4-3.19 Brourd mod] (puzzle: Exclusion 4) | 0.0271 | – | – | –
CUUUUGUGAGGAUAUCAGUAGUAAAAAAAUAAAAUUACUACUGAGAAGGCACAUGAGGAUCACCCAUGUUCCUC [EX4 344: Super Stable 44] (Eterna round: R96, puzzle: Exclusion 4) | – | 0.343 | 0.0424 | apparent KD of MS2 coat protein [4]: 0.0363 µM
CUUUUGUGAGGAUAUCAGUAGUAAAAAAAUAAAAUUACUACUGAGAAGGCACAUGAGGAUCACCCAUGUUCCUC [salish99_ex4_r3_009] (puzzle: Exclusion 4) | 0.0397 | – | – | apparent KD of MS2 coat protein [1]: 0.257 µM; apparent KD of MS2 coat protein [3]: 0.0384 µM
CUUUUGUGAGGAUAUCAGUAGUAAAGAAAUAAAAUUACUACUGAGAAGGCACAUGAGGAUCACCCAUGUUCCUC [Mat - Exclusion 4 - Mod of Salish - D62] (puzzle: Exclusion 4) | 0.0362 | – | – | –
CUUUUGUGAGGAUAUCAGUAGUAAAUAAAUAAUAUUACUACUGAGAAGGCACAUGAGGAUCACCCAUGUUCCUC [salish99_ex3_r3_083] (Eterna round: R96, puzzle: Exclusion 4) | – | 0.385 | 0.0453 | apparent KD of MS2 coat protein [4]: 0.039 µM
CUUUUGUGAGGAUAUCAGUAGUAAAUAAAUAAUAUUACUACUGAGAAGGCACAUGAGGAUCACCCAUGUUCCUC [salish99_ex3_r3_083] (puzzle: Exclusion 4) | 0.0423 | – | – | –
CUUUUGUGAGGAUAUCAGUAGUAAAUAAAUAUAAUUACUACUGAGAAGGCACAUGAGGAUCACCCAUGUUCCUC [salish99_ex3_r3_082] (puzzle: Exclusion 4) | 0.0382 | – | – | –
CUUUUGUGAGGAUAUCAGUAGUAAUACAAUAGUAUUACUACUGAGAAGGCACAUGAGGAUCACCCAUGUUCCUU [Ex4 344 Omei mod 1] (puzzle: Exclusion 4) | 0.0145 | – | – | –
CUUUUGUGAGGAUAUCAGUAGUAUAAAAUAAAAUAUACUACUGAGAAGGCACAUGAGGAUCACCCAUGUUCCUC [Mat - Exclusion 4 - Mod of Salish - D71] (puzzle: Exclusion 4) | 0.0385 | – | – | –
CUUUUGUGAGGAUAUCAGUAUUAAAAAAAUAAAAUUACUACUGAGAAGGCACAUGAGGAUCACCCAUGUUCCUC [salish99_ex4_r3_032] (puzzle: Exclusion 4) | 0.0344 | – | – | –
CUUUUGUGAGGAUAUCAGUUGUAAAUAAAUAAAAUUACUACUGAGAAGGCACAUGAGGAUCACCCAUGUUCCUC [salish99_ex3_r3_073] (puzzle: Exclusion 4) | 0.0378 | – | – | –

Sequence | apparent KD of MS2 coat protein [2] [µM] | apparent KD of MS2 coat protein (input ligand: FMN 200 uM) [µM] | apparent KD of MS2 coat protein (input ligand: none) [µM] | other results
CUUUUGUGAGGAUAUCGGUAGUAAUACAAUAGUAUUACUACUGAGAAGGCACAUGAGGAUCACCCAUGUUCCUC [Ex4 344 Omei mod 9] (puzzle: Exclusion 4) | 0.043 | – | – | –
CUUUUGUGAGGAUAUGGUAACGAUGACAUGAGGAUCACCCAUGUAACAUGGGACUUGAGACUAGAAGGCACUAACG [JR_Ex5_Sub025] (Eterna round: R97, puzzle: Exclusion 5) | – | 0.0947 | 0.134 | –
CUUUUGUGAGGAUAUUAGUAGUAAAUAAAUAAAAUUAUUACUGAGAAGGUACAUGAGGAUCACCCAUGUUCCUU [Salish 062 v21] (Eterna round: R97, puzzle: Exclusion 4) | – | 0.0128 | 0.0199 | –
CUUUUGUGAGGAUAUUAGUAGUAAAUAAAUAAAUUUACUACUGAGAAGGCACAUGAGGAUCACCCAUGUUCCUC [salish99_ex4_r3_060] (Eterna round: R96, puzzle: Exclusion 4) | – | 0.703 | 0.0409 | apparent KD of MS2 coat protein [4]: 0.0385 µM
CUUUUGUGAGGAUAUUAGUAGUAAAUAAAUAAAUUUACUACUGAGAAGGCACAUGAGGAUCACCCAUGUUCCUC [salish99_ex4_r3_060] (puzzle: Exclusion 4) | 0.0337 | – | – | –
CUUUUGUGAGGAUAUUAGUAGUUUAUAAUUAAAAUUAUUACUGAGAAGGCACAUGAGGAUCACCCAUGUAAAAC [JR_Ex4_Sub029] (Eterna round: R97, puzzle: Exclusion 4) | – | 0.122 | 0.104 | –
CUUUUUUGAGGAUAUUAGUAGUAAAUAAAUAAAAUUACUACUGAGAAGGCACAUGAGGAUCACCCAUGUUCCUC [salish99_ex4_r3_046] (puzzle: Exclusion 4) | 0.0176 | – | – | –
GAAAACGCAGAGGAUAUUCCAGAUCUAAGCUGCGAAGAAGGCUGCACAUGAGGAUCACCCAUGUGGUCUUUAAA [Maoned] (Eterna round: R96, puzzle: Exclusion 6) | – | – | – | apparent KD of MS2 coat protein [4]: 0.0137 µM
GAAAACGCAGAGGAUAUUCCAGAUCUAAGCUGCGAAGAAGGCUGCACAUGAGGAUCACCCAUGUGGUCUUUAAA [Maoned] (puzzle: Exclusion 6) | 0.0123 | – | – | apparent KD of MS2 coat protein [1]: 0.121 µM; apparent KD of MS2 coat protein [3]: 0.0149 µM
GAAAACGCAGAGGAUAUUUCAGAUCAAAGCUGCAAAGAAGGCUGCACAUGAGGAUCACCCAUGUGGUCUUCAAA [jl-ex6-4.02 ViennaUCT mod] (Eterna round: R97, puzzle: Exclusion 6) | – | 0.386 | 0.0207 | –
GAAAACGUAGGAUAUUAAUACUUAUACAUGAGGAUCACCCAUGUUUGGUGGGUUUAAGAAUGAGAAGGGCGAUGAA [EX5 #8] (Eterna round: R97, puzzle: Exclusion 5) | – | 0.446 | 0.717 | –
GAAAAGGUAGAGGAUAUUUCAGGUCAAAGCUGCAAAGAAGGCUGCACAUGAGGAUCACCCAUGUGGUCUUAAAA [Mod of Quesina 7 - Jieux - Exclusion 6] (Eterna round: R97, puzzle: Exclusion 6) | – | 0.0904 | 0.0257 | –
GAAAAGGUAGGAUAUACGAAAAAAAAGGGUAGAAAAAAAAAACAUGAGGAUCACCCAUGUAGAAGGACCAAAAG [salish99_ex2_r3_059] (Eterna round: R96, puzzle: Exclusion 2) | – | – | – | apparent KD of MS2 coat protein [4]: 0.0347 µM
GAAAAGGUAGGAUAUACGAAAAAAAAGGGUAGAAAAAAAAAACAUGAGGAUCACCCAUGUAGAAGGACCAAAAG [salish99_ex2_r3_059] (puzzle: Exclusion 2) | 0.0266 | – | – | apparent KD of MS2 coat protein [1]: 0.134 µM; apparent KD of MS2 coat protein [3]: 0.0137 µM
GAAAAGGUAGGAUAUACGAAAAAAAAGGGUAGAAAAGAAACACAUGAGGAUCACCCAUGUAGAAGGACCAAAAG [salish99_ex2_r3_016] (puzzle: Exclusion 2) | 0.0278 | – | – | apparent KD of MS2 coat protein [1]: 0.078 µM; apparent KD of MS2 coat protein [3]: 0.0215 µM
GAAAAGGUAGGAUAUACGAAAAAGAAGGGUAGAAAAAAAACACAUGAGGAUCACCCAUGUAGAAGGACCAAAAG [salish99_ex2_r3_026] (puzzle: Exclusion 2) | 0.0241 | – | – | apparent KD of MS2 coat protein [1]: 0.056 µM; apparent KD of MS2 coat protein [3]: 0.021 µM
GAAAAGGUAGGAUAUACGAAAACAAAGGGUAGAAACAAAACACAUGAGGAUCACCCAUGUAGAAGGACCAAAAG [salish99_ex2_r3_097] (Eterna round: R96, puzzle: Exclusion 2) | – | – | – | apparent KD of MS2 coat protein [4]: 0.0308 µM
